From publication PMC4322223, “Biochemical and structural characterization of a thermostable β-glucosidase from Halothermothrix orenii for galacto-oligosaccharide synthesis” (Applied Microbiology and Biotechnology, 2014)

Tests used:
Test in all cases: purified protein
Conditions in all cases: 65 °C, 20 mM HEPES, 150 mM NaCl, pH 7.0
purified protein [1] = substrate: O=[N+]([O-])c1ccccc1O[C@@H]1O[C@H](CO)[C@@H](O)[C@H](O)[C@H]1O; type: biochemical, Halothermothrix orenii
purified protein [2] = substrate: O=[N+]([O-])c1ccccc1O[C@@H]1O[C@H](CO)[C@H](O)[C@H](O)[C@H]1O; type: biochemical, Halothermothrix orenii
purified protein [3] = substrate: O=[N+]([O-])c1ccc(O[C@@H]2O[C@H](CO)[C@@H](O)[C@H](O)[C@H]2O)cc1
purified protein [4] = substrate: O=[N+]([O-])c1ccc(O[C@@H]2O[C@H](CO)[C@H](O)[C@H](O)[C@H]2O)cc1

B1: HoBGLA (Halothermothrix orenii H 168) (protein)
chain: MAKIIFPEDFIWGAATSSYQIEGAFNEDGKGESIWDRFSHTPGKIENGDTGDIACDHYHLYREDIELMKEIGIRSYRFSTSWPRILPEGKGRVNQKGLDFYKRLVDNLLKANIRPMITLYHWDLPQALQDKGGWTNRDTAKYFAEYARLMFEEFNGLVDLWVTHNEPWVVAFEGHAFGNHAPGTKDFKTALQVAHHLLLSHGMAVDIFREEDLPGEIGITLNLTPAYPAGDSEKDVKAASLLDDYINAWFLSPVFKGSYPEELHHIYEQNLGAFTTQPGDMDIISRDIDFLGINYYSRMVVRHKPGDNLFNAEVVKMEDRPSTEMGWEIYPQGLYDILVRVNKEYTDKPLYITENGAAFDDKLTEEGKIHDEKRINYLGDHFKQAYKALKDGVPLRGYYVWSLMDNFEWAYGYSKRFGLIYVDYENGNRRFLKDSALWYREVIEKGQVEAN
notes: full length, 451 residues, GH1; pNIC28-Bsa4 N-terminal His6-TEV tag cut off with TEV protease; expressed in E. coli BL21(DE3); 53 kDa
Question: Which Km (purified protein [1]) does the source give for B1 here?
Answer: The Km was 0.386 ± 0.002 mM.

Question: And the kcat (purified protein [1])?
Answer: The kcat was 94.6 s⁻¹.

Question: What about the kcat/Km (purified protein [1]) of the same protein?
Answer: Its kcat/Km is 245000 M⁻¹ s⁻¹.

Question: What about the Km (purified protein [2]) of the same protein?
Answer: Its Km is 6.35 ± 0.8 mM.

Question: What about the kcat (purified protein [2]) of the same protein?
Answer: The kcat was 288 s⁻¹.

Question: What about the kcat/Km (purified protein [2]) of the same protein?
Answer: The kcat/Km was 45300 M⁻¹ s⁻¹.

Question: And the Km (purified protein [3])?
Answer: Its Km is 0.296 ± 0.001 mM.

Question: What about the kcat (purified protein [3]) of the same protein?
Answer: Its kcat is 55.2 s⁻¹.

Question: What about the kcat/Km (purified protein [3]) of the same protein?
Answer: The kcat/Km was 187000 M⁻¹ s⁻¹.

Question: And the Km (purified protein [4])?
Answer: Its Km is 8.34 ± 0.61 mM.

Question: And the kcat (purified protein [4])?
Answer: The kcat was 156 s⁻¹.

Question: What about the kcat/Km (purified protein [4]) of the same protein?
Answer: Its kcat/Km is 18700 M⁻¹ s⁻¹.
